Measurements reported in US20240043552A1 (Eli Lilly, published 2024).
Numbering of substitutions follows the chain as printed. Names and notes keep the numbering of the source.

B1: MetMAb × Matuzumab IgG BsAb, CH1/Cκ Wild-Type (AB / H4DR variable domain designs, 7.8.60 CH3, N297Q) (bispecific antibody)
heavy 1: EVQLVESGGGLVQPGGSLRLSCAASGYTFTSYWLHWVRKAPGKGLEWVGMIDPSNSDTRFNPEFKDRFTISADTSKNTAYLQMNSLRAEDTAVYYCATYRSYVTPLDYWGQGTLVTVSSASTKGPSVFPLAPSSKSTSGGTAALGCLVKDYFPEPVTVSWNSGALTSGVHTFPAVLQSSGLYSLSSVVTVPSSSLGTQTYICNVNHKPSNTKVDKKVEPKSCDKTHTCPPCPAPELLGGPSVFLFPPKPKDTLMISRTPEVTCVVVDVSHEDPEVKFNWYVDGVEVHNAKTKPREEQYQSTYRVVSVLTVLHQDWLNGKEYKCKVSNKALPAPIEKTISKAKGQPREPQVYTLPPSREEMTDNQVSLTCLVKGFYPSDIAVEWESNGQPENNYKTTPPVLMSDGSFFLASKLTVDKSRWQQGNVFSCSVMHEALHNHYTQKSLSLSPG
light 1: RIQMTQSPSSLSASVGDRVTITCKSSQSLLYTSSQKNYLAWYQDKPGKAPKLLIYWASTRESGVPSRFSGSGSGTDFTLTISSLQPEDFATYYCQQYYAYPWTFGQGTKVEIKRTVAAPSVFIFPPSDEQLKSGTASVVCLLNNFYPREAKVQWKVDNALQSGNSQESVTEQDSKDSTYSLSSTLTLSKADYEKHKVYACEVTHQGLSSPVTKSFNRGEC
heavy 2: QVQLVQSGAEVKKPGASVKVSCKASGYTFTSHWMHWVRYAPGQGLEWIGEFNPSNGRTNYNEKFKSKATMTVDTSTNTAYMELSSLRSEDTAVYYCASRDYDYDGRYFDYWGRGTLVTVSSASTKGPSVFPLAPSSKSTSGGTAALGCLVKDYFPEPVTVSWNSGALTSGVHTFPAVLQSSGLYSLSSVVTVPSSSLGTQTYICNVNHKPSNTKVDKKVEPKSCDKTHTCPPCPAPELLGGPSVFLFPPKPKDTLMISRTPEVTCVVVDVSHEDPEVKFNWYVDGVEVHNAKTKPREEQYQSTYRVVSVLTVLHQDWLNGKEYKCKVSNKALPAPIEKTISKAKGQPRRPRVYTLPPSREEMTKNQVSLVCLVKGFYPSDIAVEWESNGQPENNYKTTPPVLDSDGSFFLYSVLTVDKSRWQQGNVFSCSVMHEALHNHYTQKSLSLSPG
light 2: DIQMTQSPSSLSASVGDRVTITCSASSSVTYMYWYQRKPGDAPKLLIYDTSNLASGVPSRFSGSGSGTDYTFTISSLQPEDIATYYCQQWSSHIFTFGQGTKVEIKRTVAAPSVFIFPPSDEQLKSGTASVVCLLNNFYPREAKVQWKVDNALQSGNSQESVTEQDSKDSTYSLSSTLTLSKADYEKHKVYACEVTHQGLSSPVTKSFNRGEC
notes: Human IgG1; also called MetMAb × Matuzumab Wild-Type
B2: MetMAb × Matuzumab IgG BsAb, CH1/Cκ design 14.1.2 (bispecific antibody)
heavy 1: B1 heavy 1 with K149A, K215E
light 1: B1 light 1 with E129K, S137R
heavy 2: B1 heavy 2
light 2: B1 light 2
notes: Human IgG1; also called MetMAb × Matuzumab 14.1.2
B3: MetMAb × Matuzumab IgG BsAb, CH1/Cκ design 14.3.1.2 (bispecific antibody)
heavy 1: B1 heavy 1 with K149A, S185G
light 1: B1 light 1 with S137R, S182I
heavy 2: B1 heavy 2 with K217E
light 2: B1 light 2 with E122K
notes: Human IgG1; also called MetMAb × Matuzumab 14.3.1.2
B4: MetMAb × Matuzumab IgG BsAb, CH1/Cκ design 14.3.1.1 (bispecific antibody)
heavy 1: B1 heavy 1 with K149A, S185A
light 1: B1 light 1 with S137R, S182I
heavy 2: B1 heavy 2 with K217E
light 2: B1 light 2 with E122K
notes: Human IgG1; also called MetMAb × Matuzumab 14.3.1.1
B5: Pertuzumab × BHA10 IgG BsAb, CH1/Cκ design 14.3.1.1 (bispecific antibody)
heavy 1: EVQLVESGGGLVQPGGSLRLSCAASGFTFTDYTMDWVRKAPGKGLEWVADVNPNSGGSIYNQEFKGRFTLSVDRSKNTLYLQMNSLRAEDTAVYYCARNLGPSFYFDYWGQGTLVTVSSASTKGPSVFPLAPSSKSTSGGTAALGCLVADYFPEPVTVSWNSGALTSGVHTFPAVLQSSGLYSLASVVTVPSSSLGTQTYICNVNHKPSNTKVDKKVEPKSCDKTHTCPPCPAPELLGGPSVFLFPPKPKDTLMISRTPEVTCVVVDVSHEDPEVKFNWYVDGVEVHNAKTKPREEQYQSTYRVVSVLTVLHQDWLNGKEYKCKVSNKALPAPIEKTISKAKGQPREPQVYTLPPSREEMTDNQVSLTCLVKGFYPSDIAVEWESNGQPENNYKTTPPVLMSDGSFFLASKLTVDKSRWQQGNVFSCSVMHEALHNHYTQKSLSLSPG
light 1: RIQMTQSPSSLSASVGDRVTITCKASQDVSIGVAWYQDKPGKAPKLLIYSASYRYTGVPSRFSGSGSGTDFTLTISSLQPEDFATYYCQQYYIYPYTFGQGTKVEIKRTVAAPSVFIFPPSDEQLKSGTARVVCLLNNFYPREAKVQWKVDNALQSGNSQESVTEQDSKDSTYSLISTLTLSKADYEKHKVYACEVTHQGLSSPVTKSFNRGEC
heavy 2: QVQLVQSGAEVKKPGSSVKVSCKASGYTFTTYYLHWVRYAPGQGLEWMGWIYPGNVHAQYNEKFKGRVTITADKSTSTAYMELSSLRSEDTAVYYCARSWEGFPYWGRGTTVTVSSASTKGPSVFPLAPSSKSTSGGTAALGCLVKDYFPEPVTVSWNSGALTSGVHTFPAVLQSSGLYSLSSVVTVPSSSLGTQTYICNVNHKPSNTKVDEKVEPKSCDKTHTCPPCPAPELLGGPSVFLFPPKPKDTLMISRTPEVTCVVVDVSHEDPEVKFNWYVDGVEVHNAKTKPREEQYQSTYRVVSVLTVLHQDWLNGKEYKCKVSNKALPAPIEKTISKAKGQPRRPRVYTLPPSREEMTKNQVSLVCLVKGFYPSDIAVEWESNGQPENNYKTTPPVLDSDGSFFLYSVLTVDKSRWQQGNVFSCSVMHEALHNHYTQKSLSLSPG
light 2: DIQMTQSPSSLSASVGDRVTITCKASQNVGINVAWYQRKPGDAPKSLISSASYRYSGVPSRFSGSGSGTDFTLTISSLQPEDFATYFCQQYDTYPFTFGQGTKVEIKRTVAAPSVFIFPPSDKQLKSGTASVVCLLNNFYPREAKVQWKVDNALQSGNSQESVTEQDSKDSTYSLSSTLTLSKADYEKHKVYACEVTHQGLSSPVTKSFNRGEC
notes: Human IgG1; also called Pertuzumab × BHA10 14.3.1.1
B6: Pertuzumab × Matuzumab IgG BsAb, CH1/Cκ Wild-Type (AB / H4DR variable domain designs, 7.8.60 CH3, N297Q) (bispecific antibody)
heavy 1: B5 heavy 1 with A149K, A185S
light 1: B5 light 1 with R131S, I176S
heavy 2: B1 heavy 2
light 2: B1 light 2
notes: Human IgG1; also called Pertuzumab × Matuzumab Wild-Type
B7: Pertuzumab × Matuzumab IgG BsAb, CH1/Cκ design 14.3.1.1 (bispecific antibody)
heavy 1: B5 heavy 1
light 1: B5 light 1
heavy 2: B1 heavy 2 with K217E
light 2: B1 light 2 with E122K
notes: Human IgG1; also called Pertuzumab × Matuzumab 14.3.1.1
B8: Pertuzumab × Matuzumab IgG BsAb, CH1/Cκ design 14.1.2 (bispecific antibody)
heavy 1: B5 heavy 1 with A185S, K215E
light 1: B5 light 1 with E123K, I176S
heavy 2: B1 heavy 2
light 2: B1 light 2
notes: Human IgG1; also called Pertuzumab × Matuzumab 14.1.2
B9: Pertuzumab × BHA10 IgG BsAb, CH1/Cκ design 14.3.1.2 (bispecific antibody)
heavy 1: B5 heavy 1 with A185G
light 1: B5 light 1
heavy 2: B5 heavy 2
light 2: B5 light 2
notes: Human IgG1; also called Pertuzumab × BHA10 14.3.1.2
B10: Pertuzumab × Matuzumab IgG BsAb, CH1/Cκ design 14.3.1.2 (bispecific antibody)
heavy 1: B5 heavy 1 with A185G
light 1: B5 light 1
heavy 2: B1 heavy 2 with K217E
light 2: B1 light 2 with E122K
notes: Human IgG1; also called Pertuzumab × Matuzumab 14.3.1.2

Target: T1, hHER-2-Fc (human, UniProt P04626 23-652)
T1 construct: Bought (R&D systems); Coated on the plate; not shown: Fc of the bought fusion protein
Experiment: sandwich ELISA with mis-matched antigens
Description: (§1) The dual-binding activity of the same synthesized IgG BsAbs is assessed using a sandwich ELISA. […] Sandwich ELISAs are developed for detecting the four different BsAb test articles; one for detecting anti-HER-2/anti-EGFR BsAb activity, one for detecting anti-HER-2/anti-LTPR BsAb activity, one for detecting anti-cMET/anti-EGFR BsAb activity and one for detecting anti-cMET/anti-LTPR BsAb activity. For all ELISAs, clear 96-well round bottom high binding Immulon microtiter plates (Greiner bio-one, cat #650061) are coated overnight at 2-8° C. with 50 μL/well 1 μg/mL hHER-2-Fc or 1 μg/mL hHGFR(cMet)-Fc (both from R&D systems) in a 50 mM Na2CO3 pH 8.3 buffer. The plates are washed 4 times with PBST and blocked with 200 μL/well casein buffer (Pierce) for 1 hr at room temperature. The plates are then washed 4 times with PBST and the parental IgG controls or BsAb IgG test articles are added at 50 μL/well and […] and serially diluted 1:3 down the plate. The controls and test articles are incubated on the plate for 1 hr at room temperature. The plates are then washed 4 times with PBST and 50 μL/well 1 μg/mL hEGFR-Fc-biotin or hLTβR-Fc-biotin (both from R&D systems) is added for 1 hr at room temperature. The plates are then washed 4 times with PBST followed by the addition of a 50 μL/well streptavidin-AP (Jackson Immunoresearch Labs Cat. #016-050-084) diluted 1:1000 in casein buffer. The streptavidin-AP is incubated in each well for 1 hr at room temperature. The plates are then washed 4 times with PBST and 100 μL/well 1-step PNPP substrate is added (Thermo Scientific Cat. #37621). After approximately 5-15 minutes, plates are read for Absorbance (405 nm) using a SPECTRAMAX® UV plate reader (Molecular Devices). Biotin-labeling of the hEGFR-Fc and hLTβR-Fc proteins is performed using EZ-LINK™ Sulfo-NHS-LC-Biotin (Thermo Scientific Cat. #21327) according to the manufacturer's protocol.

Binding result, no binding:
B1
B2
B3
B4

Target: T2, hHGFR(cMet)-Fc (human, UniProt P08581 25-932)
T2 construct: Bought (R&D systems); Coated on the plate; not shown: Fc of the bought fusion protein
Experiment: sandwich ELISA with mis-matched antigens
Description: as §1

T2 sequence (P08581 25-932): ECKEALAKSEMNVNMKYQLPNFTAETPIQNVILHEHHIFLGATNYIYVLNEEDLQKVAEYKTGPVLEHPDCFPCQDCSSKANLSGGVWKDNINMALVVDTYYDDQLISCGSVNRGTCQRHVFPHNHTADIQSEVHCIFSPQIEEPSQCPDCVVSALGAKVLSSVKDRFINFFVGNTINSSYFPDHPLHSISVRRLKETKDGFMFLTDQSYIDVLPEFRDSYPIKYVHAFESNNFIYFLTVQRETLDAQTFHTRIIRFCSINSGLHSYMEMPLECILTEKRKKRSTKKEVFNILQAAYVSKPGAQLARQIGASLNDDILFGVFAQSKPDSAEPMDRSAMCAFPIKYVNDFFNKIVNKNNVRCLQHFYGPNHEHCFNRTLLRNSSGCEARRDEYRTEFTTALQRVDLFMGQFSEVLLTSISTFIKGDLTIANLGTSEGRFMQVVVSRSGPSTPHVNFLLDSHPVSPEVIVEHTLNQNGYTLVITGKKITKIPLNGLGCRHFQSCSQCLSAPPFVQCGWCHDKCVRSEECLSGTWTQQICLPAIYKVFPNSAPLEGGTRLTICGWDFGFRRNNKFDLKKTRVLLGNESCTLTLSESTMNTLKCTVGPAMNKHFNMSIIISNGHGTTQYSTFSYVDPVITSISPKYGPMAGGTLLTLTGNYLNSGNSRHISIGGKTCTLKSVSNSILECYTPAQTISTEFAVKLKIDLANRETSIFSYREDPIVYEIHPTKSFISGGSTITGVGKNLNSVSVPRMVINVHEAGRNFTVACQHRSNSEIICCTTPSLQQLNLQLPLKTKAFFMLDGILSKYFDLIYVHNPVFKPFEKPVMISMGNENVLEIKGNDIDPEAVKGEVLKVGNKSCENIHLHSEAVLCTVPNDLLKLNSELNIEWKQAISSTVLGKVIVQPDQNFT

Binding result, no binding:
B5
B6
B7
B8
B9
B10

Target: T3, hEGFR-Fc-biotin (human, UniProt P00533 25-645, biotin-labelled with EZ-LINK Sulfo-NHS-LC-Biotin)
T3 construct: Bought (R&D systems); Detection antigen of the sandwich; not shown: Fc of the bought fusion protein
Experiment: sandwich ELISA with mis-matched antigens
Description: as §1

Binding result, no binding:
B5
B9

Target: T4, hLTβR-Fc-biotin (human, UniProt P36941 28-227, limits assumed, biotin-labelled with EZ-LINK Sulfo-NHS-LC-Biotin)
T4 construct: Bought (R&D systems); Detection antigen of the sandwich; also called LTPR (as printed once); not shown: Fc of the bought fusion protein
Experiment: sandwich ELISA with mis-matched antigens
Description: as §1

T4 sequence (P36941 28-227 limits assumed): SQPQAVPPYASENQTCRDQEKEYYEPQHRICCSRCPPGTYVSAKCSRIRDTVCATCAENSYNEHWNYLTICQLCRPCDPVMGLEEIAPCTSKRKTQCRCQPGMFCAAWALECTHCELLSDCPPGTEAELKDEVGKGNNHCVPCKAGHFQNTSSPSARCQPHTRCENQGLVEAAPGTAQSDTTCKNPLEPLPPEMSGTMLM

Binding result, no binding:
B1
B2
B3
B4
B6
B7
B8
B10
